# Measurements: EP4197559A1, “IMMUNOMODULATORY PROTEIN-SIRNA COMPLEX HAVING ANTICANCER ACTIVITY” (Korea Institute of Science and Technology, priority 2020, dated 2022)
# B1: Example 2: Immunoregulatory fusion protein (SIRPα-linker, SEQ ID NO 1) bound 1 : 1 via cysteine thiol-maleimide to CD47 siRNA (SEQ ID NO 17/18) (conjugate)
# chain 1: EEELQIIQPDKSVLVAAGETATLRCTITSLFPVGPIQWFRGAGPGRVLIYNQRQGPFPRVTTVSDTTKRNNMDFSIRIGNITPADAGTYYCIKFRKGSPDDVEFKSGAGTELSVRAKPVDGGFLGGGGCG
# chain 2: gggauauuaauacuacuucaguacaca
# chain 3: uguacugaaguauuaauauccccg
# modifications: cysteine thiol-maleimide conjugation of protein to siRNA; fusion protein; siRNA_DNA : The 26th and 27th nucleotide sequences are DNA; siRNA ansti sense
# Tests used:
# [1] = tested on: HPRT gene; assay: Silencing effect for HPRT gene expression (RT-PCR, agarose gel); type: cell-based, rat; conditions: CT26.CL25 cells, 4 hours serum-free then 2 days
# [2] = tested on: macrophages (bone marrow-derived macrophages, BMDM); assay: Macrophage phagocytosis of treated cancer cells (fluorescence microscopy); type: cell-based, mouse
# Description: After the culturing was completed, the CT26.CL25 cells were stained with pHrodo Red (Invitrogen, CA, USA) and, after adding macrophages (bone marrow-derived macrophages, BMDM) extracted from the bone marrow of a laboratory mouse (C57BL/6, male, 6-week-old), cultured for 3 hours in RPMI 1640 medium. The macrophages were stained with Green Cell Tracker (Thermo Fisher Scientific, MS, USA) and fluorescence was measured using a fluorescence microscope (Nikon, Japan).
# A control group was treated only with the SIPRα protein.
# [3] = biological target: T1, papain enzyme (Carica papaya, UniProt P00784); assay: Enzyme specificity: cleavage by papain enzyme, analysed by HPLC; type: biochemical
# T1 sequence (P00784 134-345): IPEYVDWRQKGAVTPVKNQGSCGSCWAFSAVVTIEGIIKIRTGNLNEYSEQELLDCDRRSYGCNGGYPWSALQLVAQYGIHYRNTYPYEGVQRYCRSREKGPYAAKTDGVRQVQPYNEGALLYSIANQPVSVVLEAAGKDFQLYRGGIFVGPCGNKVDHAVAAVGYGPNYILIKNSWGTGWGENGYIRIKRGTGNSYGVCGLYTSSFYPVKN
# Description: After adsorbing the sample to a C18 column (Xbridge C18, Waters, MS, USA), it was analyzed by HPLC (Agilent Technologies, CA, USA) while eluting for 30 minutes with concentration gradients using 0.1% TFA/5-95% ACN solutions.
# [4] = tested on: CT26.CL25 cells; assay: Cytotoxicity by CCK-8 (cell counting kit-8); type: cell-based, mouse; conditions: 800 nM, 72 hours
# Description: Then, the cells were analyzed using the CCK-8 (cell counting kit-8) kit.
# [5] = tested on: CD47 gene; assay: Silencing effect for CD47 gene expression (RT-PCR, agarose gel); type: cell-based, mouse; conditions: CT26.CL25 cells, 4 hours serum-free then 2 days, without CD47 antibody (-)
# [6] = tested on: HT-29 cells; assay: Intracellular delivery (uptake) by confocal microscopy; type: cell-based, human
# Description: First, 2×10^5 HT-29 cells, which are human-derived colon cancer cells, were seeded onto a 35-mm cover glass bottom dish. […] Then, CD47 SiRNA was stained red by using the TOTO3 stain. Next, after treating with the fusion protein-siRNA complex separated and purified in Example 2 at a concentration of 100 pmol/mL, the cells were cultured for 4 hours in a carbon dioxide incubator at 37 °C. Then, the cells were treated with a fixative and the SIRPα protein was stained green using FITC-labeled His-tag antibody. After staining the nuclei of the cells by treating with a 4',6-diamidino-2-phenylindole (DAPI) solution for 10 minutes, fluorescence was measured by confocal microscopy.
# In the figure, the blue color corresponds to the nuclei of the cells, the red color to the CD47 siRNA, and the green color to the SIRPα protein.
# [7] = tested on: cancer cells; assay: Pharmacological effect on cancer cells (general statement, no method given)
molecule,measurement,setting,value
B1,expression level of the HPRT gene,[1],little change in the expression level of the HPRT gene
same,phagocytosis by macrophages,"[2]; CT26.CL25 cells treated at 200 pmol/mL for two days, then BMDM for 3 hours, compared with siRNA alone",enhances phagocytosis by macrophages better than when the siRNA was used alone
same,effect of enhancing macrophage phagocytosis as compared to only the siRNA (CD47 siRNA) or the SIPRα protein,[2]; printed as 1.5-3 times or higher,1.5-3 times
same,SIRPα protein detected by HPLC,"[3]; after treating with the papain enzyme, room temperature, 10 minutes",detected after treating with the papain enzyme
same,SIRPα protein detected by HPLC,[3]; complex not treated with the papain enzyme (control),not detected
same,cell viability,[4],≥ 80%
same,expression of the CD47 gene,[5],decreases the expression of the CD47 gene to a level comparable to that of the lipofectamine-siRNA complex
same,absorption into cells,[6]; confocal microscopy,effectively absorbed into cells
same,intracellular uptake,[6]; treated together with the CD47 antibody,decreased significantly
same,superior pharmacological effect on cancer cells as compared to the fusion protein or the siRNA administered alone,[7],1.5-5 times
